Laboratory results taken from the nanobody polyreactivity screen of Harvey et al. (2022).

Assay: yeast display, Sf9 membrane polyspecificity reagent, FACS + sequencing; frameworks hold sequencing errors
In short: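 Using colony PCR, genes from sorted yeast display clones were amplified, then sequenced on MiSeq at 2 × 250 and filtered by CDR length. The clones had been stained with 10% biotinylated, detergent-solubilized Sf9 membrane reagent for 1 hour at 4 °C and sorted by FACS into low and high (top ~1%) gates on anti-HA and streptavidin fluorescence. Polyreactivity labels come from the gate of origin.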

Which “polyreactivity (PSR sort gate)” value does the source give for “QVQLVESGGGLVQAGGSLRLSCAASGRTFARNPMGWYRHAPGKERELVASIRWRGGSTYYADSVKGRFTISRDNAKNTVYLQMNRLKPEDTAVYYCATRYPYYVGRGYISYDYWGQGTQVTVSS” here?
Its value is “high polyreactivity”.

With “QVQLVESGGGLVQAGGSLRLSCAASGRTFASNAMGWYRQAPGKERELVAAISSSGGRTYYADSVKGRFTISRDNAKNTVYLQMNSLKPEDTAVYYCAKVGPVYKYDYWGQGTQVTVSS” as the sequence, how does the “polyreactivity (PSR sort gate)” value read?
The value was “high polyreactivity”.

With “QVQLVESGGGLVQAGGSLRLSCAASGRTFASYAMGWYRQAPAKDRELVAAITSGGSTKYADSVKGRFTISRDNAKNSVYFQMNSLTPEDTAVYYCWRYVFHLSNYYYWGQGTQVTVSS” as the sequence, how does the “polyreactivity (PSR sort gate)” value read?
Its value is “high polyreactivity”.

For “QVQLVESGGGLVQAGGSLRLSCAASGRTFASYAMGWYRQAPGKERELVATIRSGDSTNYADSVKGRFTISRDNAKHTVYLQMNSLKPEDTAVYYCAADRDIFQQGANGAPYDYRGQGTQVTVSS”, which “polyreactivity (PSR sort gate)” value is on record?
The value was “low polyreactivity”.

Which “polyreactivity (PSR sort gate)” value does the source give for “QVQLVESGGGLVQAGGSLRLSCAASGRTFASYAMGWYRQAPVKERELVARISKSGGSTYYADSVKGRFTISRDNAKNTVYLQMNSLKPEDTAVYYCAATRYPYLYRSEVGSDYWGQGTQVNVSS” here?
Its value is “low polyreactivity”.

Which “polyreactivity (PSR sort gate)” value does the source give for “QVQLVESGGGLVQAGGSLRLSCAASGRTFASYAMGWYRQATGKERELVAAITGSGGSTYYADSVKGRFTISRDNAKNTVYLQMNSLKPEDTAVYYCNKGPHYPVYLEYIVGYDYWGQGTQVTVSS” here?
Its value is “low polyreactivity”.

With “QVQLVESGGGLVQAGGSLRLSCAASGRTFATNAMGWYRQAPGKERELVAAITSRGGSTYYADSVKGRFTISRDNAKNTVYLQMNSLKPEDTAVYYCAAETSPSWYTWVTYDYWGQGTQVTVSS” as the sequence, how does the “polyreactivity (PSR sort gate)” value read?
Its value is “high polyreactivity”.

Which “polyreactivity (PSR sort gate)” value does the source give for “QVQLVESGGGLVQAGGSLRLSCAASGRTFATYAMGWYRPAPGKERELVAAISRSGSTTYYADSVKGRFTISRDNAKNTVYLQMNSLKPEDTAVYYCNAKFRKADYDYWGQGTQVTVSS” here?
Its value is “high polyreactivity”.

For “QVQLVESGGGLVQAGGSLRLSCAASGRTFAVNAMGWYRQAPGKEREFVARISTRGGGTYYADSVKGRFTISRDNAKNTVYLQMNSLKPEDTAVYYCNAGRTRNYYYYPMDYWGQGTQVTVSS”, which “polyreactivity (PSR sort gate)” value is on record?
Its value is “high polyreactivity”.

Which “polyreactivity (PSR sort gate)” value does the source give for “QVQLVESGGGLVQAGGSLRLSCAASGRTFAVYAMGWYRQAPGKERELVASIRLSGTRTYYADSVKGRFTISRDNAKNTVYLQMNSLKPEDTAVYYCAAKGTYSRGTFNGYRYDYWGQGTQVTVSS” here?
The value was “high polyreactivity”.

With “QVQLVESGGGLVQAGGSLRLSCAASGRTFAVYAMGWYRQAPGKERELVATINGGGNTNYADSVKGRFTISRDNAKNTVYLQMNSLKPVDTAVYYCAADAWDHWTWFYPTNGMDYWGQGTQVTVSS” as the sequence, how does the “polyreactivity (PSR sort gate)” value read?
The value was “low polyreactivity”.

Which “polyreactivity (PSR sort gate)” value does the source give for “QVQLVESGGGLVQAGGSLRLSCAASGRTFAWNAMGWYRQAPGKERELVAAISSRGTSTYYADSVKGRFTISRDNAKNTVYLQMNSLKPEDTAVYYCAKYTNPASGEYGYWGQGTQVTVSS” here?
Its value is “high polyreactivity”.

Which “polyreactivity (PSR sort gate)” value does the source give for “QVQLVESGGGLVQAGGSLRLSCAASGRTFAWYAMGWYRQAPGKERELVAAISSGGSTYYADSVKGRFTISRDNAKKTVYLQMNSLKPDDTAVYYCAAEWHYIYAYDYWRQGTQVTVSS” here?
The value was “low polyreactivity”.

With “QVQLVESGGGLVQAGGSLRLSCAASGRTFAWYAMGWYRQAPGKERELVATITSRGGSTYYADSVKGRFTISRDNAKNTVYLQMNSLKPEDTAVYYCAAQSFWRPHQYDYWGQGTQVTVSS” as the sequence, how does the “polyreactivity (PSR sort gate)” value read?
Its value is “low polyreactivity”.

For “QVQLVESGGGLVQAGGSLRLSCAASGRTFAYNTMGWYRQAPGKESELVAAITWSGGGTYYADSVKGRFTISRDNAKNTVYLQMNSLKPEDTAVYYCAVEYASPRARYRYYYWGQGTQVTVSS”, which “polyreactivity (PSR sort gate)” value is on record?
The value was “high polyreactivity”.

For “QVQLVESGGGLVQAGGSLRLSCAASGRTFAYYAMGWYIPGPGKERELVAAISSGGSTYYADCVKGRFTISRDNAKNTVYLQMNSLIPEDTAVYYCATRDKQYYYWGQGTQVTVSS”, which “polyreactivity (PSR sort gate)” value is on record?
The value was “high polyreactivity”.

With “QVQLVESGGGLVQAGGSLRLSCAASGRTFAYYAMGWYRQAPGKERELVAAIDLSDGTTFYADSVKGRFTISRDNAKNTVYLQMNSLKPEDTSVYYCAAELFNVSYGSDFDYWGQGTQVTVSS” as the sequence, how does the “polyreactivity (PSR sort gate)” value read?
The value was “low polyreactivity”.

For “QVQLVESGGGLVQAGGSLRLSCAASGRTFAYYAMGWYRQAPGKERELVAAISSGGGSTYYADSVKGRFTISRDNAKNTVYLQMNSLKPEDTAVYYCNKGFEYWGQGTQVTVSS”, which “polyreactivity (PSR sort gate)” value is on record?
The value was “high polyreactivity”.

For “QVQLVESGGGLVQAGGSLRLSCAASGRTFAYYAMGWYRQAPGKVRELVAAISSGGRTNYADSVKGRFTISRDNAKNTVYLQMNSLKPEDTAVYYCARKAAYQIYNGQYGGFGYGYWGQGTQVTVSS”, which “polyreactivity (PSR sort gate)” value is on record?
Its value is “high polyreactivity”.

For “QVQLVESGGGLVQAGGSLRLSCAASGRTFCRYAMGWYRQAPGKERELVAAIRSGASTYYADSVKGRFTISPDNGKNTVYLQMKSLIPEDTAVYYCAADIARHLTGFAYYRLDYWGQGTQVTVSS”, which “polyreactivity (PSR sort gate)” value is on record?
Its value is “low polyreactivity”.

With “QVQLVESGGGLVQAGGSLRLSCAASGRTFCYYAMVWYRRAPGKERELVAAISWSGSRTYYADSVKGRFTISRDNANNSVYLQMTSLKPEDTAVYYCAAGARGLFWEYDYWGQGTQVTVSS” as the sequence, how does the “polyreactivity (PSR sort gate)” value read?
Its value is “high polyreactivity”.

For “QVQLVESGGGLVQAGGSLRLSCAASGRTFDAYAMGWYRQAPGKERELVAAISSGGSTNYADSVKGRFTISRDHAKNTVYLQMNSLKPEDTAVYYCAAEYIQYLFYSVRVAYDYWGQGTQVTVSS”, which “polyreactivity (PSR sort gate)” value is on record?
The value was “low polyreactivity”.

Which “polyreactivity (PSR sort gate)” value does the source give for “QVQLVESGGGLVQAGGSLRLSCAASGRTFDDYAMGWSRQAPGTERELVAAITSGGSTYYADSVKGRFTISRDNAKNTVYLQMNSLKPEDTAVYYCNARSPRPYAYRPYDYWGQGTQVTVSS” here?
Its value is “low polyreactivity”.

For “QVQLVESGGGLVQAGGSLRLSCAASGRTFDGYDMGWYRQAPGQERELVAAINVVGGSTYYADSVKGRFTISRDNAKNTVYLQMNSLKPEDTAVYYCAADDYIYTVYSYTYEYWGQGTQVTVSS”, which “polyreactivity (PSR sort gate)” value is on record?
The value was “low polyreactivity”.

Which “polyreactivity (PSR sort gate)” value does the source give for “QVQLVESGGGLVQAGGSLRLSCAASGRTFDIYAMGWYRQAPGKERELVADITWSDGTTYYADSVKRRFTISRDNAKNTVYLQMTSLTPEDTAVYYCNAYTVYAYDYWGQGTQVTVSS” here?
The value was “low polyreactivity”.

For “QVQLVESGGGLVQAGGSLRLSCAASGRTFDLYAMGWYRQAHGKERELVAAIRWSSGNTYYADSVKGRFTISRDNAKNTVYLQMNSLKPEDTAVYYCNDELVPFRFEYWGQGTQVTVSS”, which “polyreactivity (PSR sort gate)” value is on record?
The value was “low polyreactivity”.

With “QVQLVESGGGLVQAGGSLRLSCAASGRTFDLYAMGWYRQAPGKERELVAAISGRGGRTYYADSVKGRFTISRDNAKNTVYLQMNSLKPEDTAVYYCAARTGATSRIRFDYWGQGTQVTVSS” as the sequence, how does the “polyreactivity (PSR sort gate)” value read?
The value was “low polyreactivity”.

For “QVQLVESGGGLVQAGGSLRLSCAASGRTFDLYAMGWYRQAPGKERELVAAITKGGGSTYYADSVKGRFTISRDNAKNTVYLQMNSLKPEDTAVYYCAARFYYPWLYLFDSWGQGTQVTVSS”, which “polyreactivity (PSR sort gate)” value is on record?
The value was “high polyreactivity”.

Which “polyreactivity (PSR sort gate)” value does the source give for “QVQLVESGGGLVQAGGSLRLSCAASGRTFDNNAMGWYRQAPGKERELVAAINWSGVRTYYADSVKGRFTISRDNAKNTVYLQMNSLKPEDTAVYYCNTVSASYYYRYNSWGQGTQVTVSS” here?
The value was “high polyreactivity”.

Which “polyreactivity (PSR sort gate)” value does the source give for “QVQLVESGGGLVQAGGSLRLSCAASGRTFDRNAMGWYRQAPGKERELVAAITSRGGRTYYADSVKGRFTISRDNAKNTVYLQMKSLKPEDTAVYYCAADLFSSRVRSNFDYWGQGTQVTVSS” here?
The value was “high polyreactivity”.

With “QVQLVESGGGLVQAGGSLRLSCAASGRTFDRYAMGWYRQAPGKERELVAAISRGGITYYADSVKERFTISRDNAKNTVYLQMNSLKPEDTAVYYCNAVRWADGDYWGQGTQVTVSS” as the sequence, how does the “polyreactivity (PSR sort gate)” value read?
The value was “high polyreactivity”.
